Experiments:
Assay in all cases: ELISA; ECM protein coated at 100 nM, BMP-2 0.1 to 100 nM
[1] = target: T1, human vitronectin (human, UniProt P04004 20-478)
T1 construct: Coated on ELISA plates at 100 nM; also called Vn
Description: (§1) ELISA plates (Greiner bio-one medium binding, Thermo Fisher Scientific) were coated with 100 nM of ECM proteins in […] of PBS for 1 h at 37° C. Then, wells were washed with […] of PBS-T (0.05% Tween-20) and blocked with […] of BSA solution (1% in PBS-T) for 1 h at room temperature. Wells without ECM protein coating, and wells blocked only with the BSA solution were used as controls for non-specific binding. ECM coated wells and control wells were further incubated 1 h at room temperature with solutions of BMP-2 (Peprotech), murine PDGF-BB (Peprotech), IL-1Ra (R&D Systems), or PIGF₁₂₃₋₁₄₁-fused proteins at concentrations ranging from 0 to 100 nM ([…] in PBS-T containing 0.1% BSA prepared in protein-low bind tubes (PROKEEP, Watson bio lab). Then, wells were washed 3 times with […] of PBS-T and incubated for 1 h with […] of biotinylated polyclonal detection antibodies in PBS-T with 0.1% BSA. Detection antibodies used were from BMP-2 DuoSet ELISA (R&D Systems, DY355) for BMP-2, PDGF-BB DuoSet ELISA (R&D Systems, DY8464) for PDGF-BB and IL-1Ra/IL-1F3
(§2) DuoSet ELISA (R&D Systems, DY480) for IL-1Ra. Wells were further washed 3 times with PBS-T and incubated for 20 min with […] of streptavidin-horseradish peroxidase (HRP). After three washes with PBS-T, TMB (ThermoFisher) was added followed by […] of stop solution (0.16M sulfuric acid). Concentrations of detection antibodies and streptavidin-HRP were used according to the manufacturer's instructions. To calculate the dissociation constants (KD) specific-binding values were fitted with a one site specific binding model using A450 nm=Bmax*[growth factors or IL-1Ra variants]/(KD+[growth factors or IL-1Ra variants]).

[2] = target: T2, human fibrinogen (human, UniProt P02671 20-644; P02675 31-491; P02679 27-437, limits assumed)
T2 construct: Coated on ELISA plates at 100 nM; also called Fg
T2 sequence (looked up) 1: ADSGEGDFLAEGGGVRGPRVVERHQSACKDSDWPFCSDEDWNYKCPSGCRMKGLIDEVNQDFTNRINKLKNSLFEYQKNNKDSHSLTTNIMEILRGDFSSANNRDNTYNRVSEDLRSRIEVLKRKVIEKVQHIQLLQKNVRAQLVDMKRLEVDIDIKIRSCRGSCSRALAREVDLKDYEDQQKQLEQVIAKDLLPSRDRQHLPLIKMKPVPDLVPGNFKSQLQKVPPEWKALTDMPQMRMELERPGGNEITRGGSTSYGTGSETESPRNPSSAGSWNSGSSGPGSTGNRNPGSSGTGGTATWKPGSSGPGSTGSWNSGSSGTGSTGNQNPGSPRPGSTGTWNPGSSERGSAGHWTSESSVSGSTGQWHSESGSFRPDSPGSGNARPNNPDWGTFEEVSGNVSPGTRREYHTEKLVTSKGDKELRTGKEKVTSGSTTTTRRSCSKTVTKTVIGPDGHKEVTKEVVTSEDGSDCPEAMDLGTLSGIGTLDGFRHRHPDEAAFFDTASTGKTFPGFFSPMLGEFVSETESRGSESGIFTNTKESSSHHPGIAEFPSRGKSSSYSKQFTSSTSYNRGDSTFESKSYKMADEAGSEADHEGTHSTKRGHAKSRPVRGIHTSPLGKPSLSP
T2 sequence (looked up) 2: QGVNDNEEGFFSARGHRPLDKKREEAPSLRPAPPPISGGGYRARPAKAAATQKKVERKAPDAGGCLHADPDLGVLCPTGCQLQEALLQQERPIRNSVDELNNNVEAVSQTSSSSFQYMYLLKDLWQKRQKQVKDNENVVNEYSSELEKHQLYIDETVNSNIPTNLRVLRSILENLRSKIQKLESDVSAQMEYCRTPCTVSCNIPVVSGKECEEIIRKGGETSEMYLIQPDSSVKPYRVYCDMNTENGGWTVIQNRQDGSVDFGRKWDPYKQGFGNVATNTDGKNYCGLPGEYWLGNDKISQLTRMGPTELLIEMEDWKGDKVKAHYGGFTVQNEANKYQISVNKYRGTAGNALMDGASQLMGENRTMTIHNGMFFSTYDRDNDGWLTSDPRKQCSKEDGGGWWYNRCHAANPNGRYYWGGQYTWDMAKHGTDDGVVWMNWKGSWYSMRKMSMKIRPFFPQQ
T2 sequence (looked up) 3: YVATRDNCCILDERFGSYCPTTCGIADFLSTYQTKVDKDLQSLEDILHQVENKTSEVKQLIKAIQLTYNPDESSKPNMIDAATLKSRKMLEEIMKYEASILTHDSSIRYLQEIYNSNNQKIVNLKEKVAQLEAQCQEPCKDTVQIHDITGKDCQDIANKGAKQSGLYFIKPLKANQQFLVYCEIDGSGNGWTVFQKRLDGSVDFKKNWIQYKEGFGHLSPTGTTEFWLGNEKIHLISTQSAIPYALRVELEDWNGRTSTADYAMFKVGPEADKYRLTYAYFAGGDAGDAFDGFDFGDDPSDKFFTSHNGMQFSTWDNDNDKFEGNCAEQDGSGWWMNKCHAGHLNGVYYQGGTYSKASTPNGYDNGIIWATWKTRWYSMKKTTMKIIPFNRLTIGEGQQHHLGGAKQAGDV
Description: as §1, §2

[3] = target: T3, human plasma fibronectin (human, UniProt P02751-8 32-2296, limits assumed)
T3 construct: Coated on ELISA plates at 100 nM; also called Fn
Description: as §1, §2

Measured: binding result

T3 sequence (P02751 other isoform, or with tags, fused parts or gaps limits assumed): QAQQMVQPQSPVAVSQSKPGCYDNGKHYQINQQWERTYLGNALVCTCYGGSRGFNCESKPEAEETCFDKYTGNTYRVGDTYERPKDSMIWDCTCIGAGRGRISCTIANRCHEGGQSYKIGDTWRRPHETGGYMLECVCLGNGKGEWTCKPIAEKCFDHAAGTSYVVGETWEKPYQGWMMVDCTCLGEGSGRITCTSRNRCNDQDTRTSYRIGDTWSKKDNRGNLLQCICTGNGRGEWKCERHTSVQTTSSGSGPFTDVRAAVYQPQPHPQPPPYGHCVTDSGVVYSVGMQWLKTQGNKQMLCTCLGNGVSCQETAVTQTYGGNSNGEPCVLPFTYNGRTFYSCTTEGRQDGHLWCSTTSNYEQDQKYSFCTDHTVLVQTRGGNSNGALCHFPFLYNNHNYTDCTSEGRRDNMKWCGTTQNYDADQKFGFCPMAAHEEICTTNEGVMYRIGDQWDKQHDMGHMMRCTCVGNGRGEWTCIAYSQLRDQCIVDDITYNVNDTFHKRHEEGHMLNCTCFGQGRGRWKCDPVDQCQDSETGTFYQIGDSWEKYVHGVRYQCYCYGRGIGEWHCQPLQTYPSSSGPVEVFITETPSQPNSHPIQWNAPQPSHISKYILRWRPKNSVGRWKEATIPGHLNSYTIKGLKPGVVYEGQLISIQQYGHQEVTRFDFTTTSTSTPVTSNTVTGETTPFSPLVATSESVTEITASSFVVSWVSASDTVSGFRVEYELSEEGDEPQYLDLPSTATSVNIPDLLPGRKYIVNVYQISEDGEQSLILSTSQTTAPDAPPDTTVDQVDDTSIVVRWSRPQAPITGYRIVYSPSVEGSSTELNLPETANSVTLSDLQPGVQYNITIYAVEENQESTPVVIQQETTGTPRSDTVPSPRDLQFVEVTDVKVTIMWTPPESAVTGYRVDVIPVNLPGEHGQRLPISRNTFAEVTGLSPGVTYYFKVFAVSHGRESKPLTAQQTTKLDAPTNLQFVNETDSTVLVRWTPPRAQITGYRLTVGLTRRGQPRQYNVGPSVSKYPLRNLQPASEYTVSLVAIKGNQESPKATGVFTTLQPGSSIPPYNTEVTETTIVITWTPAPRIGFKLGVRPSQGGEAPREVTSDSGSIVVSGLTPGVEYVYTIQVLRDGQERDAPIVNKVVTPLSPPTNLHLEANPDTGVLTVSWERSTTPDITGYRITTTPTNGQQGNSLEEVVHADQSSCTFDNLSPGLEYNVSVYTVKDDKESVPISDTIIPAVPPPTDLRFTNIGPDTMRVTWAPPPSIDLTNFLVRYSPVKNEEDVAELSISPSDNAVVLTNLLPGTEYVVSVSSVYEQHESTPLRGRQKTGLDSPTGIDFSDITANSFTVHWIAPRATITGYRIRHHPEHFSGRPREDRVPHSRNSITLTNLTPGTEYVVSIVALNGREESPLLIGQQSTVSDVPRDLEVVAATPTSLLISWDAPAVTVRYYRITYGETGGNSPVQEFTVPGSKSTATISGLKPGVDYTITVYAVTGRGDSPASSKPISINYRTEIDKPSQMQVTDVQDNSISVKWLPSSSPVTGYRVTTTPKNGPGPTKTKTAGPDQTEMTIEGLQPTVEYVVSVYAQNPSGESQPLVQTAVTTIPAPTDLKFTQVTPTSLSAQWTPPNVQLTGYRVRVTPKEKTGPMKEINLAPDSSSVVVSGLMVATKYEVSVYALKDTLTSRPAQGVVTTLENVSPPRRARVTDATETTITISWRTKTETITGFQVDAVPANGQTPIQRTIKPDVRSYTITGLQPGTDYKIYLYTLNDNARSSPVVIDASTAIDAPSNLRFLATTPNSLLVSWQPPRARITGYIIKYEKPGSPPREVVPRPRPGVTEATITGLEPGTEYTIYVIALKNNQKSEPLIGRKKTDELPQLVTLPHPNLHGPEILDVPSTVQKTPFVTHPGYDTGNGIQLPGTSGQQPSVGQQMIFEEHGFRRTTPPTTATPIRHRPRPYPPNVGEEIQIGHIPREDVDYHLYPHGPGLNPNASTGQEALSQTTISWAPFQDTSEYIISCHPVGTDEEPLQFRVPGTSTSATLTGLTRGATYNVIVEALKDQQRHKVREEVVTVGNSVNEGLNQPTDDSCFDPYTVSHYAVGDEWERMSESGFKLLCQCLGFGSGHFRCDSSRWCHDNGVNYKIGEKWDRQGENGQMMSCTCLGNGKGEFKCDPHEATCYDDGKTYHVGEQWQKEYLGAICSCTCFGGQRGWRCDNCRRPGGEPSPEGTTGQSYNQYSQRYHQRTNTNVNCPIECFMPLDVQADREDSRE
T1 sequence (P04004 20-478 limits assumed): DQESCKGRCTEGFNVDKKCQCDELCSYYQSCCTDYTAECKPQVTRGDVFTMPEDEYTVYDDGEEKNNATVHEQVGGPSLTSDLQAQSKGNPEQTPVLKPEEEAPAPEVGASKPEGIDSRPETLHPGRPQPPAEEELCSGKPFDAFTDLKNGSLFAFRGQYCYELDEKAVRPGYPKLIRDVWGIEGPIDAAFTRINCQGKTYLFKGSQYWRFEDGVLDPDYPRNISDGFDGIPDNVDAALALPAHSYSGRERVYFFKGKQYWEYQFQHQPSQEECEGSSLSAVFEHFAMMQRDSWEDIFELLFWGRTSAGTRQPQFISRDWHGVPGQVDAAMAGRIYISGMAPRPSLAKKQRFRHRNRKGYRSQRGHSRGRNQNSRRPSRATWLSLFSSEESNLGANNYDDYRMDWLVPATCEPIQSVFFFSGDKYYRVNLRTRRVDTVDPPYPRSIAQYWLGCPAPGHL

B1: BMP-2 (bone morphogenetic protein-2, Peprotech) (ligand, murine, UniProt P21274 281-394, looked up)
chain: QAKHKQRKRLKSSCKRHPLYVDFSDVGWNDWIVAPPGYHAFYCHGECPFPLADHLNSTNHAIVQTLVNSVNSKIPKACCVPTELSAISMLYLDENEKVVLKNYQDMVVEGCGCR
notes: also called wild-type BMP-2
binds: [1] | [2] | [3]

Reference: patent publication US20230272045A1 (MONASH UNIVERSITY, published 2023)
